Data taken from US7141393 (KABUSHIKI KAISHA HAYASHIBARA SEIBUTSU KAGAKU KENKYUJO, dated 2006).

Target: T1, IL-18R protein on the surface of L428 cell (human, UniProt Q13478 19-541)
T1 construct: whole, on cells; Endogenous receptor on cell lines; also called L428 cells; IL-18R protein on the surface of KG-1 cell
T1 sequence (looked up): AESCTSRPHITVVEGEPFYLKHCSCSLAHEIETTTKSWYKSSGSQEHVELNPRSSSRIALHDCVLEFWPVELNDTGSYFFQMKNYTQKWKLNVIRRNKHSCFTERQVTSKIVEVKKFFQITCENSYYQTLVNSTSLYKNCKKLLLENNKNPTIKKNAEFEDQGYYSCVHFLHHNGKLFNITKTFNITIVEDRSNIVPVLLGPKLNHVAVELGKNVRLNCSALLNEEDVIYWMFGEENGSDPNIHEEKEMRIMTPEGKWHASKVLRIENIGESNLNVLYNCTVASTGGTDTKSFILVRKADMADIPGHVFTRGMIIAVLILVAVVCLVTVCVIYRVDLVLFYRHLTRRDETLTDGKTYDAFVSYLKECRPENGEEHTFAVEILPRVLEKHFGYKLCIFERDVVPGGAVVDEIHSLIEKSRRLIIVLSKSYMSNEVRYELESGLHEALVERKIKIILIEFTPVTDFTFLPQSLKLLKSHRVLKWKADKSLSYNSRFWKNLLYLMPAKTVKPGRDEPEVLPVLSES
Experiment: inhibition of 125I-labelled IL-18 binding to L428 cells (FIG. 1 legend)
Description: Subsequently, each cell suspension was added with 200 µl mixture solution (volume ratio 1:1) of dibutylphthalate and diocthylphtalate and centrifuged at 10,000 rpm and 20° C. for 5 minutes, followed by collecting the resultant precipitates containing the cells which were then determined for radioactivity using "MODEL ARC-300", a gamma-ray counter commercialized by Aloka Co., Ltd, Tokyo, Japan.
The levels of radioactivity found in "non-specific binding section" and "whole binding section" were put in Formula 1 together with that found in the sample testing section to calculate percent inhibition.

B1: monoclonal antibody MAb #117-10C (antibody, V domains shown)
VH: EVQLQQSGAELVKPGASVKLSCTTSGFNIKDIYIYWVKQRPEQGLEWVGRIDPANGDTKYGPNFQDKATITADTSSNTAYLQLRSLTSEDTAVYYCARRGNYGAGFGYWGQGTLVTVSA
VL: DIQMTQSPASLSASVGETVTITCRASGNIHNYLAWYQQRQGKSPQILVYNAKTLADGVSSRFSGSGSGTQYSLNINSLQPEDFGTYFCQHFWSTPYTFGGGTKLEIKR
notes: Mouse hybridoma antibody purified from ascites
Q: Does B1 bind?
A: binds
